Among the data in the RNAGym collection of RNA variant scans (doi:10.1093/nar/gkz1192) are self-cleavage values, retold here.

B1: CPEB3 Ribozyme (parent)
chain: UAACAGGGGGCCACAGCAGAAGCGUUCACGUCGCAGCCCCUGUCAGAUUCUGGUGAAUCUGCGAAUUCUGCUGUAUAUCUC

In the data set the parent is B1. The data set can be described thus: self-cleavage, relative activity (ratio to wild type); higher = more cleavage; in vitro, sequencing. Put shortly: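 CPEB3 self-cleaving ribozyme mutant libraries were made by rounds of error-prone PCR, barcoded, and transcribed in vitro with T7 RNA polymerase for 5 hours at 37°C. Cleavage occurred during transcription and a 15 min DNase I step before EDTA stop. RNAs were reverse transcribed with template switching and Illumina-sequenced, with DNA sequencing mapping barcodes to variants. Relative activity is the variant's cleaved/total read fraction divided by wild type's (minimum 5 reads), averaged across three batches.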
On to U26C A28C, for which the self-cleavage is 0.29.
With U26C A28G the figure was 0.31; with U26C A28U, 0.29; with U25G U74C, 0.52.
To U25G U74G belongs 0.37.
Take U26A A47U: the self-cleavage is 0.58.
With U26A A47G the figure was 0.84.
With U26A U80A the figure was 0.96; with U26A U80C, 1.02.
With U26A U80G the figure was 1.06; with U25G C71G, 0.16.
Consider U25G C37U, for which the self-cleavage was 0.09.
For the variant U25G A57G, the self-cleavage worked out at 0.16.
Consider U25C G61U, for which the self-cleavage was 0.17.
To U25C G61C belongs 0.15.
To U25C G61A belongs 0.15; to U26A U54C, 0.84; to U26A U54G, 0.53.
With U26A U54A the figure was 0.82.
On to U25C U66C, for which the self-cleavage came out at 0.27.
To U25C U66A belongs 0.35; to U25C U66G, 0.69.
With U26C A47G the figure was 0.48; with U26C A47C, 0.08; with U26C A47U, 0.36.
To U25G A56G belongs 0.4; to U26A U66G, 0.42; to U26A U66A, 0.38.
U26A U66C: the self-cleavage was determined as 0.34.
Turning to U25C U43G, the self-cleavage was 0.35.
To U25C U43A belongs 0.34.
Take U25C U43C: the self-cleavage came out at 0.3.
Consider U26C C59A, for which the self-cleavage amounted to 0.17.
With U26A G63U the figure was 0.87; with U26A G63A, 0.74.
With U26A G55U the figure was 0.77.
For the variant U25C G52A, the self-cleavage was determined as 0.26.
To U25C G52C belongs 0.58.
To U25C G52U belongs 0.29.
As to U25G, the self-cleavage came out at 0.31.
To U25C U49A belongs 0.3; to U25C U49C, 0.21.
To U25G C50U belongs 0.14; to U26A G42A, 0.29.
To U25G U69A belongs 0.15; to U25G U69C, 0.24; to U25G C27U, 0.39.
On to U25G C59U, for which the self-cleavage is 0.21.
With U25C G70A the figure was 0.3; with U25C G70C, 0.11; with U25C G42U, 0.5.
U25C G42C: the self-cleavage was 0.33.
To U25G G52A belongs 0.15; to U25G C39U, 0.3; to U26A C81G, 1.1.
Regarding U25C C40A, the self-cleavage was found to be 0.15.
With U25C C40U the figure was 0.19; with U26A C62A, 0.25.
Turning to U26A C62U, the self-cleavage amounted to 0.21.
With U26A C62G the figure was 0.2; with U25G U78C, 0.15.
With U25G U78A the figure was 0.12; with U25C G30C, 0.26.
Take U25C G30A: the self-cleavage was determined as 0.33.
With U25C G30U the figure was 0.16.
Turning to U25C U58C, the self-cleavage worked out at 0.26.
With U25C U58G the figure was 0.33; with U25C U58A, 0.29.
With U26A U67A the figure was 0.38; with U26A U67C, 0.29.
With U26A A64U the figure was 0.27.
U26A A64G: the self-cleavage is 0.61.
To U26A A64C belongs 0.5; to U25G U48C, 0.36; to U25C U72C, 0.28.
With U25C U72A the figure was 0.22.
For U25C U72G, the self-cleavage came out at 0.26.
With U25G G73A the figure was 0.51.
With U25C U51G the figure was 0.12.
To U25C U51C belongs 0.26.
On to U25C U51A, for which the self-cleavage is 0.27.
With U25C U48A, the self-cleavage was found to be 0.31.
To U25C U48G belongs 0.39; to U25C U48C, 0.26; to U26A C38U, 0.51.
To U26A C38A belongs 0.27; to U26A C44G, 0.94; to U26A C44U, 0.46.
To U25C G46U belongs 0.2; to U25C G46A, 0.28; to U25C G46C, 0.
In the case of U26C A57G, the self-cleavage was determined as 0.36.
To U26C A57C belongs 0.28; to U26C A57U, 0.31.
With U26A A65U the figure was 0.35.
As to U26A A65G, the self-cleavage amounted to 0.38.
With U26A A45U, the self-cleavage worked out at 0.42.
Turning to U26A A45C, the self-cleavage worked out at 0.21.
As for U26A A45G, the self-cleavage amounted to 0.69.
With U26A G36U the figure was 0.39.
With U26A the figure was 0.89; with U26C, 0.5.
To U26C C32G belongs 0.11.
Regarding U26C C32U, the self-cleavage came out at 0.16.
With U26C C32A the figure was 0.22.
With U26A A28U the figure was 0.61; with U26A A28G, 0.38.
To U26A G61C belongs 0.27.
As to U26A G61A, the self-cleavage amounted to 0.73.
With U25C G33U the figure was 0.15; with U25C G33C, 0.16; with U25C G33A, 0.25.
To U26A U74A belongs 1.31.
To U26A U74C belongs 1.16; to U25C G53A, 0.43; to U25C G53C, 0.15.
U26C C50G: the self-cleavage came to 0.22.
As to U26C C50A, the self-cleavage was determined as 0.44.
Turning to U26C C50U, the self-cleavage is 0.27.
As to U25C C79A, the self-cleavage came out at 0.35.
With U25C C79U the figure was 0.34; with U25C C79G, 0.26.
With U26A C79U the figure was 1.05.
To U26A C79A belongs 1.07.
Regarding U26C C38U, the self-cleavage amounted to 0.4.
With U26C C38G the figure was 0.09; with U26C C38A, 0.19.
To U26A U78G belongs 0.5; to U26A U78C, 0.82.
As for U26A U78A, the self-cleavage amounted to 0.67.
With U25G U80C the figure was 0.37; with U25G A77U, 0.25.
With U25G U76C the figure was 0.52; with U25G A65U, 0.07; with U25G A65G, 0.26.
With U25G U72C the figure was 0.26; with U25G U72A, 0.21.
Take U26A U49G: the self-cleavage turned out to be 0.41.
Consider U26A U49A, for which the self-cleavage is 0.49.
To U26A U49C belongs 0.3; to U26A U69C, 0.4; to U26A U69G, 0.48.
To U26A U69A belongs 0.46; to U26C A77U, 0.53; to U26C A77G, 0.46.
To U26C A77C belongs 0.45; to U26C A75U, 0.56.
On to U26C A75G, for which the self-cleavage is 0.38.
As to U26C A75C, the self-cleavage was found to be 0.38.
For U26A U41C, the self-cleavage was 0.67.
To U26A U41G belongs 0.33; to U26A U41A, 0.25.
Regarding U25C U76G, the self-cleavage was determined as 0.45.
To U25C U76C belongs 0.3.
With U25C U76A the figure was 0.33.
As to U25G U43C, the self-cleavage turned out to be 0.34.
With U25G U43A the figure was 0.58; with U26A U48A, 0.35; with U26A U48C, 0.47.
With U26A U48G the figure was 0.37; with U26A C40G, 0.17; with U26A C40A, 0.25.
To U26A C40U belongs 0.59; to U26A A75G, 0.69; to U26A A75U, 0.9.
As to U25C G63U, the self-cleavage came to 0.3.
In the case of U25C G63A, the self-cleavage was determined as 0.37.
